# Laboratory results as given in patent US11781118B2, “Preparation of L-amino acid deaminase mutant and application thereof” (Jiangnan University, priority 2020, dated 2023).
# Test: Shake flask screening of mutants: whole-cell transformation of L-valine, α-ketoisovaleric acid determined by HPLC
# Type: cell-based, E. coli BL21
# Details: transformation temperature 25° C., pH 8.0, 24 h
# Procedure: Preparation of sample for determining α-ketoisovaleric acid content by HPLC: 1 mL of a transformed transformation solution is centrifuged at 12000 rpm for 5 min, the supernatant is diluted and filtered through a 0.45 μm filtration membrane, and the filtrate is for liquid chromatography.
# Determination of α-ketoisovaleric acid content by HPLC: a waters high performance liquid chromatograph (equipped with a UV-visible detector) and a Bio-Rad Aminex HPX-87H (300×7.8 mm, 9 μm) chromatographic column are used, and the mobile phase is dilute sulfuric acid with the concentration of 2.5 mmol/L. The mobile phase is filtered through a 0.22 μm filtration membrane; the filtrate is subjected to ultrasonic degassing; and detection is performed at the flow rate of 0.6 mL/min, the column temperature of 35° C. and the ultraviolet detection wavelength of 210 nm.
# (2) Shake flask screening of single mutants: The obtained 4 mutant strains and a strain containing wild-type L-amino acid deaminase were respectively inoculated into an LB seed medium, and cultured at 200 rpm at 37° C. for about 10 h. The products were respectively inoculated into a shake flask fermentation medium with the inoculum size of 5% of the medium by volume, and cultured at 200 rpm at 37° C. until OD600 was about 0.8. IPTG with the final concentration of 0.04 mmol/L was added for induction, and the induction was performed at 200 rpm at 25° C. for 14 h. The product was centrifuged at 6000 rpm for 8 min to collect bacterial cells. The bacterial cells collected by centrifugation were used for later transformation experiments.
# Transformation conditions: transformation temperature 25° C., reaction pH 8.0, and transformation time 24 h.
# The yield of α-ketoisovaleric acid of the transformation solution after the completion of the transformation was determined by HPLC. Finally, S98A produced α-ketoisovaleric acid at the highest yield.
row,Molecule,α-ketoisovaleric acid [g/L]
1,PmirLAAD^S98A (protein) MNISRRKLLLGVGAAGVLAGGAALVPMVRRDGKFVEAKSRASFVEGTQGALPKEADVVIIGAGIQGIMTAINLAERGMSVTILEKGQIAGEQSGRAYAQIISYQTSPEIFPLHHYGKILWRGMNEKIGADTSYRTQGRVEALADEKALDKAQAWIKTAKEAAGFDTPLNTRIIKGEELSNRLVGAQTPWTVAAFEEDSGSVDPETGTPALARYAKQIGVKIYTNCAVRGIETAGGKISDVVSEKGAIKTSQVVLAGGIWSRLFMGNMGIDIPTLNVYLSQQRVSGVPGAPRGNVHLPNGIHFREQADGTYAVAPRIFTSSIVKDSFLLGPKFMHLLGGGELPLEFSIGEDLFNSFKMPTSWNLDEKTPFEQFRVATATQNTQHLDAVFQRMKTEFPVFEKSEVVERWGAVVSPTFDELPIISEVKEYPGLVINTATVWGMTEGPAAGEVTADIVMGKKPVIDPTPFSLDRFKK,46.9
2,PmirLAAD^S106A/L341A (protein) MNISRRKLLLGVGAAGVLAGGAALVPMVRRDGKFVEAKSRASFVEGTQGALPKEADVVIIGAGIQGIMTAINLAERGMSVTILEKGQIAGEQSGRAYSQIISYQTAPEIFPLHHYGKILWRGMNEKIGADTSYRTQGRVEALADEKALDKAQAWIKTAKEAAGFDTPLNTRIIKGEELSNRLVGAQTPWTVAAFEEDSGSVDPETGTPALARYAKQIGVKIYTNCAVRGIETAGGKISDVVSEKGAIKTSQVVLAGGIWSRLFMGNMGIDIPTLNVYLSQQRVSGVPGAPRGNVHLPNGIHFREQADGTYAVAPRIFTSSIVKDSFLLGPKFMHLLGGGEAPLEFSIGEDLFNSFKMPTSWNLDEKTPFEQFRVATATQNTQHLDAVFQRMKTEFPVFEKSEVVERWGAVVSPTFDELPIISEVKEYPGLVINTATVWGMTEGPAAGEVTADIVMGKKPVIDPTPFSLDRFKK,46.5
3,PmirLAAD^S98A/S106A (protein) MNISRRKLLLGVGAAGVLAGGAALVPMVRRDGKFVEAKSRASFVEGTQGALPKEADVVIIGAGIQGIMTAINLAERGMSVTILEKGQIAGEQSGRAYAQIISYQTAPEIFPLHHYGKILWRGMNEKIGADTSYRTQGRVEALADEKALDKAQAWIKTAKEAAGFDTPLNTRIIKGEELSNRLVGAQTPWTVAAFEEDSGSVDPETGTPALARYAKQIGVKIYTNCAVRGIETAGGKISDVVSEKGAIKTSQVVLAGGIWSRLFMGNMGIDIPTLNVYLSQQRVSGVPGAPRGNVHLPNGIHFREQADGTYAVAPRIFTSSIVKDSFLLGPKFMHLLGGGELPLEFSIGEDLFNSFKMPTSWNLDEKTPFEQFRVATATQNTQHLDAVFQRMKTEFPVFEKSEVVERWGAVVSPTFDELPIISEVKEYPGLVINTATVWGMTEGPAAGEVTADIVMGKKPVIDPTPFSLDRFKK,50.9
4,PmirLAAD^S106A (protein) MNISRRKLLLGVGAAGVLAGGAALVPMVRRDGKFVEAKSRASFVEGTQGALPKEADVVIIGAGIQGIMTAINLAERGMSVTILEKGQIAGEQSGRAYSQIISYQTAPEIFPLHHYGKILWRGMNEKIGADTSYRTQGRVEALADEKALDKAQAWIKTAKEAAGFDTPLNTRIIKGEELSNRLVGAQTPWTVAAFEEDSGSVDPETGTPALARYAKQIGVKIYTNCAVRGIETAGGKISDVVSEKGAIKTSQVVLAGGIWSRLFMGNMGIDIPTLNVYLSQQRVSGVPGAPRGNVHLPNGIHFREQADGTYAVAPRIFTSSIVKDSFLLGPKFMHLLGGGELPLEFSIGEDLFNSFKMPTSWNLDEKTPFEQFRVATATQNTQHLDAVFQRMKTEFPVFEKSEVVERWGAVVSPTFDELPIISEVKEYPGLVINTATVWGMTEGPAAGEVTADIVMGKKPVIDPTPFSLDRFKK,44.9
5,PmirLAAD^S98A/T105A (protein) MNISRRKLLLGVGAAGVLAGGAALVPMVRRDGKFVEAKSRASFVEGTQGALPKEADVVIIGAGIQGIMTAINLAERGMSVTILEKGQIAGEQSGRAYAQIISYQASPEIFPLHHYGKILWRGMNEKIGADTSYRTQGRVEALADEKALDKAQAWIKTAKEAAGFDTPLNTRIIKGEELSNRLVGAQTPWTVAAFEEDSGSVDPETGTPALARYAKQIGVKIYTNCAVRGIETAGGKISDVVSEKGAIKTSQVVLAGGIWSRLFMGNMGIDIPTLNVYLSQQRVSGVPGAPRGNVHLPNGIHFREQADGTYAVAPRIFTSSIVKDSFLLGPKFMHLLGGGELPLEFSIGEDLFNSFKMPTSWNLDEKTPFEQFRVATATQNTQHLDAVFQRMKTEFPVFEKSEVVERWGAVVSPTFDELPIISEVKEYPGLVINTATVWGMTEGPAAGEVTADIVMGKKPVIDPTPFSLDRFKK,52.6
6,PmirLAAD^T105A/S106A (protein) MNISRRKLLLGVGAAGVLAGGAALVPMVRRDGKFVEAKSRASFVEGTQGALPKEADVVIIGAGIQGIMTAINLAERGMSVTILEKGQIAGEQSGRAYSQIISYQAAPEIFPLHHYGKILWRGMNEKIGADTSYRTQGRVEALADEKALDKAQAWIKTAKEAAGFDTPLNTRIIKGEELSNRLVGAQTPWTVAAFEEDSGSVDPETGTPALARYAKQIGVKIYTNCAVRGIETAGGKISDVVSEKGAIKTSQVVLAGGIWSRLFMGNMGIDIPTLNVYLSQQRVSGVPGAPRGNVHLPNGIHFREQADGTYAVAPRIFTSSIVKDSFLLGPKFMHLLGGGELPLEFSIGEDLFNSFKMPTSWNLDEKTPFEQFRVATATQNTQHLDAVFQRMKTEFPVFEKSEVVERWGAVVSPTFDELPIISEVKEYPGLVINTATVWGMTEGPAAGEVTADIVMGKKPVIDPTPFSLDRFKK,49.4
7,PmirLAAD^S98A/L341A (protein) MNISRRKLLLGVGAAGVLAGGAALVPMVRRDGKFVEAKSRASFVEGTQGALPKEADVVIIGAGIQGIMTAINLAERGMSVTILEKGQIAGEQSGRAYAQIISYQTSPEIFPLHHYGKILWRGMNEKIGADTSYRTQGRVEALADEKALDKAQAWIKTAKEAAGFDTPLNTRIIKGEELSNRLVGAQTPWTVAAFEEDSGSVDPETGTPALARYAKQIGVKIYTNCAVRGIETAGGKISDVVSEKGAIKTSQVVLAGGIWSRLFMGNMGIDIPTLNVYLSQQRVSGVPGAPRGNVHLPNGIHFREQADGTYAVAPRIFTSSIVKDSFLLGPKFMHLLGGGEAPLEFSIGEDLFNSFKMPTSWNLDEKTPFEQFRVATATQNTQHLDAVFQRMKTEFPVFEKSEVVERWGAVVSPTFDELPIISEVKEYPGLVINTATVWGMTEGPAAGEVTADIVMGKKPVIDPTPFSLDRFKK,51.5
8,PmirLAAD^L341A (protein) MNISRRKLLLGVGAAGVLAGGAALVPMVRRDGKFVEAKSRASFVEGTQGALPKEADVVIIGAGIQGIMTAINLAERGMSVTILEKGQIAGEQSGRAYSQIISYQTSPEIFPLHHYGKILWRGMNEKIGADTSYRTQGRVEALADEKALDKAQAWIKTAKEAAGFDTPLNTRIIKGEELSNRLVGAQTPWTVAAFEEDSGSVDPETGTPALARYAKQIGVKIYTNCAVRGIETAGGKISDVVSEKGAIKTSQVVLAGGIWSRLFMGNMGIDIPTLNVYLSQQRVSGVPGAPRGNVHLPNGIHFREQADGTYAVAPRIFTSSIVKDSFLLGPKFMHLLGGGEAPLEFSIGEDLFNSFKMPTSWNLDEKTPFEQFRVATATQNTQHLDAVFQRMKTEFPVFEKSEVVERWGAVVSPTFDELPIISEVKEYPGLVINTATVWGMTEGPAAGEVTADIVMGKKPVIDPTPFSLDRFKK,43.6
9,PmirLAAD^T105A/L341A (protein) MNISRRKLLLGVGAAGVLAGGAALVPMVRRDGKFVEAKSRASFVEGTQGALPKEADVVIIGAGIQGIMTAINLAERGMSVTILEKGQIAGEQSGRAYSQIISYQASPEIFPLHHYGKILWRGMNEKIGADTSYRTQGRVEALADEKALDKAQAWIKTAKEAAGFDTPLNTRIIKGEELSNRLVGAQTPWTVAAFEEDSGSVDPETGTPALARYAKQIGVKIYTNCAVRGIETAGGKISDVVSEKGAIKTSQVVLAGGIWSRLFMGNMGIDIPTLNVYLSQQRVSGVPGAPRGNVHLPNGIHFREQADGTYAVAPRIFTSSIVKDSFLLGPKFMHLLGGGEAPLEFSIGEDLFNSFKMPTSWNLDEKTPFEQFRVATATQNTQHLDAVFQRMKTEFPVFEKSEVVERWGAVVSPTFDELPIISEVKEYPGLVINTATVWGMTEGPAAGEVTADIVMGKKPVIDPTPFSLDRFKK,47.1
10,PmirLAAD^T105A (protein) MNISRRKLLLGVGAAGVLAGGAALVPMVRRDGKFVEAKSRASFVEGTQGALPKEADVVIIGAGIQGIMTAINLAERGMSVTILEKGQIAGEQSGRAYSQIISYQASPEIFPLHHYGKILWRGMNEKIGADTSYRTQGRVEALADEKALDKAQAWIKTAKEAAGFDTPLNTRIIKGEELSNRLVGAQTPWTVAAFEEDSGSVDPETGTPALARYAKQIGVKIYTNCAVRGIETAGGKISDVVSEKGAIKTSQVVLAGGIWSRLFMGNMGIDIPTLNVYLSQQRVSGVPGAPRGNVHLPNGIHFREQADGTYAVAPRIFTSSIVKDSFLLGPKFMHLLGGGELPLEFSIGEDLFNSFKMPTSWNLDEKTPFEQFRVATATQNTQHLDAVFQRMKTEFPVFEKSEVVERWGAVVSPTFDELPIISEVKEYPGLVINTATVWGMTEGPAAGEVTADIVMGKKPVIDPTPFSLDRFKK,44.6
